Measured values: patent US20150259426A1 (Novartis, published 2015)
Read-outs that look alike come from different tables or passages of the source.

Legend:
[1] = biological target: T1, cell-bound human DR5 (Colo205 and other human cell lines) (human, UniProt O14763 56-440); experiment: cell-based or functional assay
[2] = biological target: T1, cell-bound human DR5 (Colo205 and other …); experiment: cell-based or functional assay; remark: listed apart in the source
hGITR = biological target: T2, hGITR (human, UniProt Q9Y5U5); experiment: ELISA, receptor ECD from E. coli lysate on His capture plate;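 further: binding specificity screen across TNF receptor superfamily ectodomains, anti-V5 detection as expression reference, primary antibody incubation 1 h at room temperature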
T2 construct: extracellular domain, E. coli lysate captured on a His capture plate; Target named only on the sheet; the construct is not described in the text
T2 sequence (extracellular domain, looked up): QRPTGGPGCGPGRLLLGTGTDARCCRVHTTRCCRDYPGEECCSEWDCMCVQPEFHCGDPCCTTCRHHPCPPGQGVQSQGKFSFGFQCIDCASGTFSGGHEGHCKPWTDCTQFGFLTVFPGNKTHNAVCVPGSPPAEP

[3] = biological target: T3, TNFR1 extracellular domain (TNFRSF1A, Leu34-Thr211) (UniProt P19438 34-211); experiment: as above
T3 construct: range 34-211; ECD cloned into pBadThioTopo; E. coli lysate on His capture plates
T3 sequence (looked up): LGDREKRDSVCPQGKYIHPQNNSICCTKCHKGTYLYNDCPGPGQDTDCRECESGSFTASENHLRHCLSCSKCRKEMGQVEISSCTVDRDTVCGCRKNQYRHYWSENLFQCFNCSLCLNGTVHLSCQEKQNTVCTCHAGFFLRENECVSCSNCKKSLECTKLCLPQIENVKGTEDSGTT

[4] = biological target: T4, TNFR3 extracellular domain (TNFRSF3, Pro30-Thr224) (UniProt P36941 30-224); experiment: as above
T4 construct: range 30-224; ECD cloned into pBadThioTopo; E. coli lysate on His capture plates
T4 sequence (P36941 30-224 limits assumed): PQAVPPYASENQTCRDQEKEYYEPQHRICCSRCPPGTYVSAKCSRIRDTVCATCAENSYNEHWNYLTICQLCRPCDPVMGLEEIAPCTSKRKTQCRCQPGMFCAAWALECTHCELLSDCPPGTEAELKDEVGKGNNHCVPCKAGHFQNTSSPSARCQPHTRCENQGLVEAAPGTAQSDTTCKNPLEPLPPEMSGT

[5] = biological target: T5, OX40 extracellular domain (TNFRSF4, Gly33-Gly212) (UniProt P43489 33-212); experiment: as above
T5 construct: ECD cloned into pBadThioTopo; E. coli lysate on His capture plates
T5 sequence (looked up): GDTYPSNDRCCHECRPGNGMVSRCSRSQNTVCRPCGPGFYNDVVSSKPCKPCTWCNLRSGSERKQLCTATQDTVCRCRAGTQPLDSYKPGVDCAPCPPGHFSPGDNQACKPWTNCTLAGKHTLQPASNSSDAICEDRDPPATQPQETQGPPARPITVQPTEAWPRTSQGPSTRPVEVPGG

[6] = biological target: T6, CD40 extracellular domain (TNFRSF5, Val18-Leu192) (UniProt P25942 18-192); experiment: as above
T6 construct: range 18-192; ECD cloned into pBadThioTopo; E. coli lysate on His capture plates
T6 sequence (P25942 18-192 limits assumed): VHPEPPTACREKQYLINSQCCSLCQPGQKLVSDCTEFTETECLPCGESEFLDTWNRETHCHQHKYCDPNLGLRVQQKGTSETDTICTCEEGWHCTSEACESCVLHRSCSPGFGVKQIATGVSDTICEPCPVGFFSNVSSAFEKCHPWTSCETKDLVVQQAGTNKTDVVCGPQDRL

[7] = biological target: T7, FAS extracellular domain (TNFRSF6, Ser20-Gly175) (UniProt P25445 20-175); experiment: as above
T7 construct: ECD cloned into pBadThioTopo; E. coli lysate on His capture plates
T7 sequence (looked up): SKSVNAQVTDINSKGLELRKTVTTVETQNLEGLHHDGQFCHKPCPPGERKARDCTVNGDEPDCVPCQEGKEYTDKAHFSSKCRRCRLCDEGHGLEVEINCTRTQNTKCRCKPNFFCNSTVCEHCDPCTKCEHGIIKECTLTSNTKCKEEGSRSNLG

[8] = biological target: T8, DcR3 (TNFRSF6B, Val27-Ala176) (UniProt O95407 27-176); experiment: as above
T8 construct: range 27-176; ECD cloned into pBadThioTopo; E. coli lysate on His capture plates
T8 sequence (looked up): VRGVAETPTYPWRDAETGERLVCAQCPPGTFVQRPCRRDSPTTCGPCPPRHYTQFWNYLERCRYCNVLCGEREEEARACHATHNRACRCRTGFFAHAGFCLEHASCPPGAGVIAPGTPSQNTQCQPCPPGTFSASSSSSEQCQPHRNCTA

[9] = biological target: T9, CD27 extracellular domain (TNFRSF7, Thr21-Ser187) (UniProt P26842 21-187); experiment: as above
T9 construct: range 21-187; ECD cloned into pBadThioTopo; E. coli lysate on His capture plates
T9 sequence (P26842 21-187 limits assumed): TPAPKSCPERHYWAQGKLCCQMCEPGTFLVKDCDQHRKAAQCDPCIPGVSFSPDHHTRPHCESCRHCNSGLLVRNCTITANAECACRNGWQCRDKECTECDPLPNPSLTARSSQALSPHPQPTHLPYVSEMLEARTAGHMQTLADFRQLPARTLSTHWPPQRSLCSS

[10] = biological target: T10, CD137 extracellular domain (TNFRSF9, Glu19-Ile188) (UniProt Q07011 19-188); experiment: as above
T10 construct: range 19-188; ECD cloned into pBadThioTopo; E. coli lysate on His capture plates
T10 sequence (Q07011 19-188 limits assumed): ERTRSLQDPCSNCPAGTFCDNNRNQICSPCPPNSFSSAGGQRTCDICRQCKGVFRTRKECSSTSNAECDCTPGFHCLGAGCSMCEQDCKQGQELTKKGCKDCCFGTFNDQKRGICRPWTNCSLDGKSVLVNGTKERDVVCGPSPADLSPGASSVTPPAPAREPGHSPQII

[11] = biological target: T11, DcR2 extracellular domain (TNFRSF10D, Thr57-Thr198) (UniProt Q9UBN6 57-198); experiment: as above
T11 construct: range 57-198; ECD cloned into pBadThioTopo; E. coli lysate on His capture plates
T11 sequence (looked up): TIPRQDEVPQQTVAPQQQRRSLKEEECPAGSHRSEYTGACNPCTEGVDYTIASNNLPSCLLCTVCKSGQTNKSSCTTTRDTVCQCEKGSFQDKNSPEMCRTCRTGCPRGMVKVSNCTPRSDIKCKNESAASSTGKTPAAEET

[12] = biological target: T12, OPG (TNFRSF11B, Lys17-Ile197) (UniProt O00300 17-197); experiment: as above
T12 construct: range 17-197; ECD cloned into pBadThioTopo; E. coli lysate on His capture plates
T12 sequence (looked up): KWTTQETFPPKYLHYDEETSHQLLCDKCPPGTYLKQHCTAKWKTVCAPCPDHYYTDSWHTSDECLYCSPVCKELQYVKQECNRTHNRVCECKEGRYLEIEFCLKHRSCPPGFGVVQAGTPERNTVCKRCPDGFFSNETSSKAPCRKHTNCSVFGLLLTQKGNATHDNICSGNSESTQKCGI

[13] = biological target: T13, BAFFR extracellular domain (TNFRSF13C, Met1-Gly64) (UniProt Q96RJ3 1-64); experiment: as above
T13 construct: range 1-64; ECD cloned into pBadThioTopo; E. coli lysate on His capture plates
T13 sequence (Q96RJ3 1-64 limits assumed): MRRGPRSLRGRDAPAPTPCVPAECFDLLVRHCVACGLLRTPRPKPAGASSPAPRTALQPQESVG

[14] = biological target: T1, cell-bound human DR5 (Colo205 and other …); experiment: cell-based or functional assay; remark: listed apart in the source
[15] = biological target: T1, cell-bound human DR5 (Colo205 and other …); experiment: cell-based or functional assay; remark: listed apart in the source

B1: 7A12 tetra (tetravalent anti-DR5 NB construct) (other)
chain: EVQLVESGGGLVQAGGSLRLSCAASGRTFSNYAMGWFRQAPGKEREFVAALNWSGGSTYYVDSVKGRFTISRDNAKNTVYLQMNSLKPEDTAVYYCAAAGSFSLGGRPYGDDYWGKGTLVTVSSGGGGSGGGGSGGGGSGGGGSGGGGSGGGGSGGGGSEVQLVESGGGLVQAGGSLRLSCAASGRTFSNYAMGWFRQAPGKEREFVAALNWSGGSTYYVDSVKGRFTISRDNAKNTVYLQMNSLKPEDTAVYYCAAAGSFSLGGRPYGDDYWGKGTLVTVSSGGGGSGGGGSGGGGSGGGGSGGGGSGGGGSGGGGSEVQLVESGGGLVQAGGSLRLSCAASGRTFSNYAMGWFRQAPGKEREFVAALNWSGGSTYYVDSVKGRFTISRDNAKNTVYLQMNSLKPEDTAVYYCAAAGSFSLGGRPYGDDYWGKGTLVTVSSGGGGSGGGGSGGGGSGGGGSGGGGSGGGGSGGGGSEVQLVESGGGLVQAGGSLRLSCAASGRTFSNYAMGWFRQAPGKEREFVAALNWSGGSTYYVDSVKGRFTISRDNAKNTVYLQMNSLKPEDTAVYYCAAAGSFSLGGRPYGDDYWGKGTLVTVSS
notes: four VHH units in one chain joined by GlySer linkers; not shown: C-terminal c-myc/His6 tag from vector pAX51
IC50, cell survival, 184A1 [1]: ≥ 20 nM
IC50, cell survival, A549 [1]: ≥ 20 nM
IC50, cell survival, ARPE-19 [1]: ≥ 20 nM
IC50, cell survival, BxPC-3 [1]: 0.023 nM
IC50, cell survival, Colo205 [1]: 0.0066 nM
IC50, cell survival, H226 [1]: ≥ 20 nM
IC50, cell survival, H2052 [1]: 0.033 nM
IC50, cell survival, H2122 [1]: 0.0036 nM
IC50, cell survival, HAAE-1 [1]: ≥ 20 nM
IC50, cell survival, Huvec [1]: ≥ 20 nM
IC50, cell survival, Jurkat [1]: 0.037 nM
IC50, cell survival, M30 [1]: ≥ 20 nM
IC50, cell survival, Malme-3 [1]: ≥ 20 nM
IC50, cell survival, MiaPaCa-2 [1]: 0.041 nM
IC50, cell survival, Molt4 [1]: ≥ 20 nM
IC50, cell survival, Panc-1 [1]: ≥ 20 nM
IC50, cell survival, WI-38 [1]: ≥ 20 nM
EC50, caspase 3/7 in Colo205 tumor after a single dose in mice, indirect response model [2]: 1.41 ng/mg tissue
binding result (hGITR): no binding (tested: not stated)
binding result [3]: no binding (tested: not stated)
binding result [4]: no binding (tested: not stated)
binding result [5]: no binding (tested: not stated)
binding result [6]: no binding (tested: not stated)
binding result [7]: no binding (tested: not stated)
binding result [8]: no binding (tested: not stated)
binding result [9]: no binding (tested: not stated)
binding result [10]: no binding (tested: not stated)
binding result [11]: no binding (tested: not stated)
binding result [12]: no binding (tested: not stated)
binding result [13]: no binding (tested: not stated)

B2: 4E6-Hu tetra (4E6 hu tetramer) (other)
chain: EVQLLESGGGLVQPGGSLRLSCAASGRTFGSIRVGWFRQAPGKGREFVSAINRNDGTTYYADSVKGRFTISRDNSKNTVYLQMNSLRPEDTAVYYCAAGLQYNRAADRVPVGAVYWGQGTLVTVSSGGGGSGGGGSGGGGSGGGGSGGGGSGGGGSGGGGSEVQLLESGGGLVQPGGSLRLSCAASGRTFGSIRVGWFRQAPGKGREFVSAINRNDGTTYYADSVKGRFTISRDNSKNTVYLQMNSLRPEDTAVYYCAAGLQYNRAADRVPVGAVYWGQGTLVTVSSGGGGSGGGGSGGGGSGGGGSGGGGSGGGGSGGGGSEVQLLESGGGLVQPGGSLRLSCAASGRTFGSIRVGWFRQAPGKGREFVSAINRNDGTTYYADSVKGRFTISRDNSKNTVYLQMNSLRPEDTAVYYCAAGLQYNRAADRVPVGAVYWGQGTLVTVSSGGGGSGGGGSGGGGSGGGGSGGGGSGGGGSGGGGSEVQLLESGGGLVQPGGSLRLSCAASGRTFGSIRVGWFRQAPGKGREFVSAINRNDGTTYYADSVKGRFTISRDNSKNTVYLQMNSLRPEDTAVYYCAAGLQYNRAADRVPVGAVYWGQGTLVTVSS
IC50, cell survival, Colo205 [14]: 0.012 nM
IC50, cell survival, Jurkat [14]: 0.0026 nM
IC50, cell survival, A549 [15]: > 10 nM
IC50, cell survival, BxPC-3 [15]: 0.0292 nM
IC50, cell survival, Colo205 [15]: 0.0034 nM
IC50, cell survival, H226 [15]: 0.129 nM
IC50, cell survival, H2122 [15]: 0.0051 nM
IC50, cell survival, Jurkat (72) [15]: 0.0172 nM
IC50, cell survival, M30 [15]: > 10 nM
IC50, cell survival, MiaPaCa-2 [15]: 0.0185 nM
IC50, cell survival, Panc-1 [15]: 0.229 nM
IC50, cell survival, T24 [15]: 0.0447 nM
